Results as given in article PMC9276737.

Experiments:
Settings in all cases: 2 nM 32P-labelled DNA; binding buffer, salt, pH and temperature only by reference (refs 50, 51); native 6% polyacrylamide gel for EMSA
[1] = molecular target: T1, MgaSpn-His (Streptococcus pneumoniae R6) (UniProt Q8DNN5); experiment: DNase I footprinting
T1 sequence: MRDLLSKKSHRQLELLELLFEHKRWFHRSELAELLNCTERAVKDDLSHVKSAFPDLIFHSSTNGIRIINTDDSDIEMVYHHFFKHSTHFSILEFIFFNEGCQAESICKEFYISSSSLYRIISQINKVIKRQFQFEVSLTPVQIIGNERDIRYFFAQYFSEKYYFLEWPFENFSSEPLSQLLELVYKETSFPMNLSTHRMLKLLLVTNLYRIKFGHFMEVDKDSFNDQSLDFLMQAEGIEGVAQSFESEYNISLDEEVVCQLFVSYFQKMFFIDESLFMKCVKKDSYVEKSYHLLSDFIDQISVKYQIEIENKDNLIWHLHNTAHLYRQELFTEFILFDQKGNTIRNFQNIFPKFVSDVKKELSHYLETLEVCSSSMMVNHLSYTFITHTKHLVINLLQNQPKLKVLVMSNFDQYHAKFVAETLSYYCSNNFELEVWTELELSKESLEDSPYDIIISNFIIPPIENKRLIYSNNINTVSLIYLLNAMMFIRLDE

[2] = molecular target: T2, PclR-His (Streptococcus pneumoniae R6) (UniProt Q8DP24); experiment: DNase I footprinting
T2 sequence: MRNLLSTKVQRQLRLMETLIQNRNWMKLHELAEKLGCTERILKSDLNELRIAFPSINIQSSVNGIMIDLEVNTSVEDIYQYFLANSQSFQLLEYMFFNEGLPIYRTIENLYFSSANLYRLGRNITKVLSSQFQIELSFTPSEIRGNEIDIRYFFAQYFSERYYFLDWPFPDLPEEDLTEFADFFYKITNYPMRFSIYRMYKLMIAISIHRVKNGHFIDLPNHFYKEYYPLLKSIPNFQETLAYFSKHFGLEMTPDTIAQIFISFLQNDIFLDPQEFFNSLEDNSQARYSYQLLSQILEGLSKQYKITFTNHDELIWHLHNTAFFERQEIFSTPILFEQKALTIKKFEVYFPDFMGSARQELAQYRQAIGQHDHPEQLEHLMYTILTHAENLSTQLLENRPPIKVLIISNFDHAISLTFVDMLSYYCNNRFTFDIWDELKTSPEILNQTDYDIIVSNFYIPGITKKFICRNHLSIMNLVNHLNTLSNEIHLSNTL

[3] = molecular target: T1, MgaSpn-His (Streptococcus pneumoniae R6); experiment: EMSA
[4] = molecular target: T2, PclR-His (Streptococcus pneumoniae R6); experiment: EMSA

Sequence	binding [1]	binding [2]	binding [3]	binding [4]
CGGCTAGTTCATGTAATTTCATCCAATTACGATTCTGAATTAGGGTTTCCATTAAGCGTAATTGTCTTTGAACTTTTGTGGATAAAAGGTTTCTCATACGGGTATTTCCTCCATAATTCATTATATCTTTTTTTGTCTAAGTAGTATAAAAAAATTAGAGCAAGAAAATTGTCGTTAGTAATCGGAAAAATTAGAATAATATAAGTGGCTTTTAAGTGCAAAAACAGAATATATTAATTGTTCAGAAAATATTGATTAATGCCTCAAATAGTTGTACATTG (double strand) [281-bp PpclA promoter fragment]	binds	binds		
CAAATTCTTTAATTGTTGCTATTATATAATTTTTAAAATTAAAAATATAATCTTTAGACTTGAATTTGATTCTGTATTCACGCCCTCAATAGACGGTAAAATAAGAAAATTGTTTATATATTGTCTCCGTAGTGTTATTATACGAAATAAAAGATTTTAGGAAAAGTCGTTATATCATGCTATACCTATTCTTTGTGGTATAATTGCAAGAGGTTTAATCCG (double strand) [222-bp P1623B promoter fragment]		no binding		
CTCCTAGATAGTATTTTATAGTTTACAATGTACAACTATTTGAGGCATTAATCAATATTTTCTGAACAATTAATATATTCTGTTTTTGCACTTAAAAGCCACTTATATTATTCTAATTTTTCCGATTACTAACGACAATTTTCTTGCTCTAATTTTTTTATACTACTTAGACAAAAAAAGATATAATGAATTATGGAGGAAATACCCGTATGAGAAACCTTTTATCCACAAAAGTTCAAAGACAATTACGCTTAATGGAAACCCTAATTC (double strand) [270-bp PpclA promoter fragment]	binds	binds	binds	binds
